Measurements published in patent US9211312 (VOLUTION IMMUNO PHARMACEUTICALS, dated 2015).

How the values were obtained:
complement C5 = target: T1, complement C5 (Homo sapiens (Human), UniProt P01031 19-673; P01031 678-1676, The beta and alpha chains of native C5 are linked by a disulfide bond. The native protein is glycosylated.); experiment: direct binding to C5 (FIG. 4C); method not described
T1 construct: also called complement protein C5

[1] = target: human complement C5 (in human serum) (human, UniProt P01031 19-1676); experiment: cell-based or functional assay
[2] = target: rat complement C5 (in rat serum) (rat, UniProt P08650 19-1681); experiment: cell-based or functional assay
[3] = target: mouse complement C5 (in mouse serum) (mouse, UniProt P06684 19-1680); experiment: cell-based or functional assay
Chain of mouse complement C5 (in mouse serum) (P06684 19-1680 limits assumed): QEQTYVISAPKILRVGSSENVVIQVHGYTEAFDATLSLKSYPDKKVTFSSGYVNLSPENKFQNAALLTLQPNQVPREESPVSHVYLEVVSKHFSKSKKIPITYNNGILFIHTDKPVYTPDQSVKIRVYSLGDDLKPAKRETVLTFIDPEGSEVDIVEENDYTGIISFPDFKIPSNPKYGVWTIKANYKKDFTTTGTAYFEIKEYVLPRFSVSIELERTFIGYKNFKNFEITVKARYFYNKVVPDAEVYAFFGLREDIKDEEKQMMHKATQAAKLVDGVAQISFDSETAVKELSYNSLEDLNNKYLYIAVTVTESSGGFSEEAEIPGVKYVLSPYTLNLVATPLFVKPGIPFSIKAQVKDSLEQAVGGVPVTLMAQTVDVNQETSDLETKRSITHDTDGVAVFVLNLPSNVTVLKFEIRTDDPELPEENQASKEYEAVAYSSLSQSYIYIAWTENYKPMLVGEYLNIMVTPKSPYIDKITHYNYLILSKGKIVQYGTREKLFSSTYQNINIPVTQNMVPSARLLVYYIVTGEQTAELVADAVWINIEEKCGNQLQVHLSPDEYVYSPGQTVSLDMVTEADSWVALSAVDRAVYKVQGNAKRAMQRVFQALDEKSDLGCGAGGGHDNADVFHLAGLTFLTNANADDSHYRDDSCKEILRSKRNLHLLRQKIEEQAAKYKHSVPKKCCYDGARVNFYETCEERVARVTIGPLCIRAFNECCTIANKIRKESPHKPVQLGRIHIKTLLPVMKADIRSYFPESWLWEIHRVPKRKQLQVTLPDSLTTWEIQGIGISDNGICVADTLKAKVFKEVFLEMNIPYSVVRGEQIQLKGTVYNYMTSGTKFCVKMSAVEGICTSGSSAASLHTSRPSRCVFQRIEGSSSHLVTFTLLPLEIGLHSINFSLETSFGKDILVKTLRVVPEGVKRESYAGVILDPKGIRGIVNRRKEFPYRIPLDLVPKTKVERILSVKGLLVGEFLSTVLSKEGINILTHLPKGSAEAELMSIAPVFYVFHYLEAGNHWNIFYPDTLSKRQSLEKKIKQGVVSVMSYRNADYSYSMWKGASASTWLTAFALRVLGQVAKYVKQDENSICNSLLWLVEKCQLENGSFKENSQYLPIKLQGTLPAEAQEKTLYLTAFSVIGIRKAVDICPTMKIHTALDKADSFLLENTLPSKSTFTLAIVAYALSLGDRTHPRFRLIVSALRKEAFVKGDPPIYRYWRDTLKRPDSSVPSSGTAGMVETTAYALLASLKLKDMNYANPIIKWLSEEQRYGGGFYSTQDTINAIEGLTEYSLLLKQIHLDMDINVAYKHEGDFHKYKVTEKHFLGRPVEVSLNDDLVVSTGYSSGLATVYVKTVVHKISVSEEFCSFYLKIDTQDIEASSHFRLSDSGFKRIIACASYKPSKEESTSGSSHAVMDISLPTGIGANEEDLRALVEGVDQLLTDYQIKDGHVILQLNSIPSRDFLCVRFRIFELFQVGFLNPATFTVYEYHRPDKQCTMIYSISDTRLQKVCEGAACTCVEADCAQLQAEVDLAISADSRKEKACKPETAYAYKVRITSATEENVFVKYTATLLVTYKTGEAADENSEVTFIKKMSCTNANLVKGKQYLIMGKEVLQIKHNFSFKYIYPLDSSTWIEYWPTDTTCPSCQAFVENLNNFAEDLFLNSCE

T1 sequence (P01031 19-673 limits assumed, form in doubt, chain 1 of 2): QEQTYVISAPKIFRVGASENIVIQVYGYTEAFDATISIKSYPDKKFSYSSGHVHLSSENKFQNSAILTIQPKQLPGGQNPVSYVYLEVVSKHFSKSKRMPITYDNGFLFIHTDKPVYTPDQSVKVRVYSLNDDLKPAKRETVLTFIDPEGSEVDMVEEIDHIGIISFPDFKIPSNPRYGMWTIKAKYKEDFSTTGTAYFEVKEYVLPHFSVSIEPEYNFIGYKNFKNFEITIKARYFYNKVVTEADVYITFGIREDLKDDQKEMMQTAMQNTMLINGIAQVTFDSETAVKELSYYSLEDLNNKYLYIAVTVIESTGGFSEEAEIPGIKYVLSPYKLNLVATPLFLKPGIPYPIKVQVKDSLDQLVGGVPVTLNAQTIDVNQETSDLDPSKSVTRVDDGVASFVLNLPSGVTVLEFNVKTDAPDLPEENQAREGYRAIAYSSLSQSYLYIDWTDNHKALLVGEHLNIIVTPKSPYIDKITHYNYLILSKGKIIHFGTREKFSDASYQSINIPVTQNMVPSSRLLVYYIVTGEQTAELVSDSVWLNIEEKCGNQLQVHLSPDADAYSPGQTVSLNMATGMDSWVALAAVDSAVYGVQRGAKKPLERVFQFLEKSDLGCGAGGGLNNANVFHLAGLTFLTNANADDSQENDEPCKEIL
T1 sequence (P01031 678-1676 limits assumed, form in doubt, chain 2 of 2): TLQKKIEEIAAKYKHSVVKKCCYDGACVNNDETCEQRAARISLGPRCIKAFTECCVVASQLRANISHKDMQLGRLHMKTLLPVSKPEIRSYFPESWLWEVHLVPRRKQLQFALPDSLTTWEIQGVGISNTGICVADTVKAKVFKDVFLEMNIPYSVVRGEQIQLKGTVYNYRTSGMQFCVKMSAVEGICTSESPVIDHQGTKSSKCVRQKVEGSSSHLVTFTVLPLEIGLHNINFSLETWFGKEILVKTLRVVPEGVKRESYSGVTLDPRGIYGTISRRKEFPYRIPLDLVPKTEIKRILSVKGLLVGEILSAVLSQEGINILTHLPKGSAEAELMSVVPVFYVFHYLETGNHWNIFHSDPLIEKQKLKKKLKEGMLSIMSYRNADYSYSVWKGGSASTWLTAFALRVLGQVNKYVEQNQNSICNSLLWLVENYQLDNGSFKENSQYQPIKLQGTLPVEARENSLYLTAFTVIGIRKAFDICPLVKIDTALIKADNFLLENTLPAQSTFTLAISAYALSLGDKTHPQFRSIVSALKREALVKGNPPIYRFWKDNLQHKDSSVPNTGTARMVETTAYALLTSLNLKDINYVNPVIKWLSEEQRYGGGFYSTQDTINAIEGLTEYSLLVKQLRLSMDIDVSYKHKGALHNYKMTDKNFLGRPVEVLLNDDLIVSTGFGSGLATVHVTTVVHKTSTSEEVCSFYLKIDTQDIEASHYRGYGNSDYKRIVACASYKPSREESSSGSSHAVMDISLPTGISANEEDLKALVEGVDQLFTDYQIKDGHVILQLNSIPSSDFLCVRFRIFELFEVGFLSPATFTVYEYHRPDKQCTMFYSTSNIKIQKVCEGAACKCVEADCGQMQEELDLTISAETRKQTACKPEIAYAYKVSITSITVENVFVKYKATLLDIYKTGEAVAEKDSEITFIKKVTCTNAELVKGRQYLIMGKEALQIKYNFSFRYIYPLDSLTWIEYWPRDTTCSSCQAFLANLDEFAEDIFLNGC
Chain of human complement C5 (in human serum) (P01031 19-1676 limits assumed): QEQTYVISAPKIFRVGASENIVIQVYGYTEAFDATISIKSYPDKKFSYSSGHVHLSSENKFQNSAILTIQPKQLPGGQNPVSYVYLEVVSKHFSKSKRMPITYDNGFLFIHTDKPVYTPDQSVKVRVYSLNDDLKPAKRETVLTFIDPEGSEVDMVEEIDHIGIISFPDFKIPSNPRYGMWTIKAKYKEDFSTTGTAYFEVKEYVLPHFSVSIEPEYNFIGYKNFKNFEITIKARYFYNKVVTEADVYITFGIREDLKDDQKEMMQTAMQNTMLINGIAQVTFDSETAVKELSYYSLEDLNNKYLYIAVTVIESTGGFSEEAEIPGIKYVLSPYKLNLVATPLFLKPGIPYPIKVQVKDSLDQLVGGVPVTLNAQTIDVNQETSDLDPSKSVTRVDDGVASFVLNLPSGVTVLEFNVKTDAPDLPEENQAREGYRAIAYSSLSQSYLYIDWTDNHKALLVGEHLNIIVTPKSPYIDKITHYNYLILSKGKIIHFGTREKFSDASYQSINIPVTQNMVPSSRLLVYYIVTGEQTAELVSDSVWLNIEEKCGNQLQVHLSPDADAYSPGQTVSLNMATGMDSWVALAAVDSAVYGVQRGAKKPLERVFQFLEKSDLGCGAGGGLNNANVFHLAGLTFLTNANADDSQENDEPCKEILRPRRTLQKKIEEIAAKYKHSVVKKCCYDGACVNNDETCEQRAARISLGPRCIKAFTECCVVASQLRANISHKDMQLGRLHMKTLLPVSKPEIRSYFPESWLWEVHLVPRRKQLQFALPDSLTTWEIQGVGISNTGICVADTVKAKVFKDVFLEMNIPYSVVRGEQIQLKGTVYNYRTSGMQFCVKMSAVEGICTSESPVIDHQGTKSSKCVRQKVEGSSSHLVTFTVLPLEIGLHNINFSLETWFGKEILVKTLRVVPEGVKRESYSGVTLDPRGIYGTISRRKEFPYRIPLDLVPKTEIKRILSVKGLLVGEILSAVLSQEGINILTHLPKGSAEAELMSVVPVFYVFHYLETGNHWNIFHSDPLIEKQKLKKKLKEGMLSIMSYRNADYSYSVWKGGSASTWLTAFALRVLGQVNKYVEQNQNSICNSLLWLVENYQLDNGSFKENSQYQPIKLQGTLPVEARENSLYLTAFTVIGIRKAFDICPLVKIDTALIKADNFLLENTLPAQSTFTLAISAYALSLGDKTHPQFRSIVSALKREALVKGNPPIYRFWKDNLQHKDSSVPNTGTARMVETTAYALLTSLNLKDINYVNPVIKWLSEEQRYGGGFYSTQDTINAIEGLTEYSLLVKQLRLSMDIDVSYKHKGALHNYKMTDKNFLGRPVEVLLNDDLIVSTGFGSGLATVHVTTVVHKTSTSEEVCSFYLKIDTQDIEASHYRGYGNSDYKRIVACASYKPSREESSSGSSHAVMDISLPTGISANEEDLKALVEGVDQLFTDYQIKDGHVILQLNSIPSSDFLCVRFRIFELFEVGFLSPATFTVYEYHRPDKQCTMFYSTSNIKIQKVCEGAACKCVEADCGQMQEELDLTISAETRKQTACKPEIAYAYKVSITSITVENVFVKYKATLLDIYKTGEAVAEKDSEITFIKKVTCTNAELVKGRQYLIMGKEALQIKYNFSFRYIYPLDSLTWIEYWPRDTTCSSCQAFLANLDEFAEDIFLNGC

B1: EV576 protein, native, purified from salivary gland extracts of the soft tick Ornithodoros moubata (other)
chain: DSESDCTGSEPVDAFQAFSEGKEAYVLVRSTDPKARDCLKGEPAGEKQDNTLPVMMTFKNGTDWASTDWTFTLDGAKVTATLGNLTQNREVVYDSQSHHCHVDKVEKEVPDYEMWMLDAGGLEVEVECCRQKLEELASGRNQMYPHLKDC
~20 µg/mL: IC50 (complement C5) | IC50, binding of C5 and prevention of its cleavage by C5 convertase in serum [1] | IC50, binding of C5 and prevention of its cleavage by C5 convertase in serum [2] | IC50, binding of C5 and prevention of its cleavage by C5 convertase in serum [3]
